Experimental findings from patent publication US20190276509A1 (Memorial Sloan Kettering, published 2019) are described below.

In test [1] the target is purified recombinant CBP KIX domain (Homo sapiens (Human)) (UniProt Q92793). The test is described as follows: microscale thermophoresis (MST), FITC-peptide fixed, purified KIX titrated, n=3. (In general: Microscale thermophoresis detects binding through changes in fluorescence in a small temperature gradient.)
For test [2] the target is unchanged. In words: microscale thermophoresis (MST), FITC-peptide at fixed concentration, purified KIX titrated; concentration read is that of KIX.
The target in test [3] is T1, purified recombinant CBP KIX domain (Homo sapiens (Human), UniProt Q92793 587-666).
T1 construct: Linker residues may remain after the thrombin cut; also called purified KIX
The test is described as above.

For test [4], the target named is T1, purified recombinant CBP KIX domain. The test is described as follows: microscale thermophoresis (MST), FITC-peptide fixed, purified KIX titrated, n=3.
Test [5] has the same target. The test is described as follows: microscale thermophoresis (MST), FITC-peptide at fixed concentration, purified KIX titrated.

No end group written: not given here.

T1 sequence (Q92793 587-666 limits assumed): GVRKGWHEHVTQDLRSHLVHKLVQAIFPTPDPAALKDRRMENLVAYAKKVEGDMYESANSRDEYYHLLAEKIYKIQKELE
purified recombinant CBP KIX domain (Homo sapiens (Human)), sequence (Q92793 587-666 limits assumed): as above

For “FITC-MYBMIM (FITC-conjugated D-amino acid retro-inverso peptide, D-aa)”, the Kd in test [1] worked out at 25.4 µM. In addition, the EC50 (read off the curve) in test [2] was 30 µM.

B1: FITC-MYB (FITC-conjugated L-amino acid peptide, L-aa) (peptide)
peptide: YGRKKRRQRRRGGKRIKELELLLMSTENELK-NH2
modifications: not fully specified (N-terminus); also: conjugated to FITC, site not given here, N-terminal acetyl
notes: It is uncertain whether the labelled peptide carried the TAT part; also called L-aa peptide
As to B1, the concentration for a half-maximal effect (EC50 (read off the curve)) in test [3] is around 5 µM. Also, the equilibrium dissociation constant (Kd) in test [4] amounted to 5.25 µM.

B2: FITC-TAT (fluorescein-conjugated TAT peptide, FITC-AHA-YGRKKRRQRRR-NH2) (peptide)
peptide: YGRKKRRQRRR
modifications: not fully specified; N-terminal FITC-aminohexanoic acid (FITC-AHA); C-terminal amide; L-amino acids
Turning to B2, the binding result in test [5] is reported as “no binding (tested: about 50 uM KIX)”.

What is called Kd is a measure of binding affinity in units of concentration. Usually EC50 (read off the curve) stands for the midpoint of the concentration-response curve.
